Earlier results as cited in paper PMC8297464.

Columns and labels:
ACE2 (Homo sapiens) = ACE2 (Homo sapiens) (UniProt Q9BYF1)
[1] = target: Spike RBD RBD (SARS-CoV-2) (UniProt P0DTC2)

Sequence of Human defensin 5 (Q01523 63-94): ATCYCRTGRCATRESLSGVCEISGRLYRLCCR

Row | Substance | Kd (ACE2 (Homo sapiens)) | Kd [1]
1 | Human defensin 5 (from UniProt Q01523) | 39.3 nM | 
2 | SBP1 α1 helix 23-mer (from UniProt Q9BYF1) |  | 47 nM
